Experimental data as given in publication doi:10.1101/298208 (bioRxiv, 2018).

Biological target: the molecule itself
Test: native gel or EMSA

B1: scavenger receptor class BI (SR-BI) (receptor)
chain: MGGSSRARWVALGLGALGLLFAALGVVMILMVPSLIKQQVLKNVRIDPSSLSFGMWKEIPVPFYLSVYFFEVVNPNEVLNGQKPVVRERGPYVYREFRQKVNITFNDNDTVSFVENRSLHFQPDKSHGSESDYIVLPNILVLGGSILMESKPVSLKLMMTLALVTMGQRAFMNRTVGEILWGYDDPFVHFLNTYLPDMLPIKGKFGLFVGMNNSNSGVFTVFTGVQNFSRIHLVDKWNGLSKIDYWHSEQCNMINGTSGQMWAPFMTPESSLEFFSPEACRSMKLTYNESRVFEGIPTYRFTAPDTLFANGSVYPPNEGFCPCRESGIQNVSTCRFGAPLFLSHPHFYNADPVLSEAVLGLNPNPKEHSLFLDIHPVTGIPMNCSVKMQLSLYIKSVKGIGQTGKIEPVVLPLLWFEQSGAMGGKPLSTFYTQLVLMPQVLHYAQYVLLGLGGLLLLVPIICQLRSQEKCFLFWSGSKKGSQDKEAIQAYSESLMSPAAKGTVLQEAKL
- stoichiometry N: 2
